Experiments:
[1] = target: T1, E. coli RNase P holoenzyme (C5 protein + P RNA), wild type (Escherichia coli, UniProt P0A7Y8 1-119); experiment: stopped-flow 2Ap fluorescence, global fit (k-1/k1); 17.5 mM Mg2+; k1 0.43e6 M-1 s-1, k-1 0.084 s-1; 50 mM MES pH 6, 100 mM NaCl, 17.5 mM MgCl2 (or CaCl2), 0.015% Triton X-100 reduced, 37 C (PAGE single turnover); stopped-flow in similar buffer; settings: protein: recombinant; label: 2-aminopurine; 12 bp continuous helix with one U-G wobble; 5' overhang 9 nt, 3' overhang 4 nt (GCCA)
T1 sequence: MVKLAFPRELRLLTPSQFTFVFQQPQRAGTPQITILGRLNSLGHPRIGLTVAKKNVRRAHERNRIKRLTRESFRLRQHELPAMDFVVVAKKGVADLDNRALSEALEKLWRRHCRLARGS

[2] = target: T2, E. coli RNase P holoenzyme, P RNA U69A (Escherichia coli, UniProt P0A7Y8 1-119); experiment: single-turnover kinetics by PAGE (K'); 17.5 mM Mg2+; imprecise, very slow cleavage; 50 mM MES pH 6, 100 mM NaCl, 17.5 mM MgCl2 (or CaCl2), 0.015% Triton X-100 reduced, 37 C (PAGE single turnover); stopped-flow in similar buffer; settings: protein: recombinant; label: 5' Cy3 on strand 1; 12 bp continuous helix with one U-G wobble; 5' overhang 9 nt, 3' overhang 4 nt (GCCA)
T2 sequence: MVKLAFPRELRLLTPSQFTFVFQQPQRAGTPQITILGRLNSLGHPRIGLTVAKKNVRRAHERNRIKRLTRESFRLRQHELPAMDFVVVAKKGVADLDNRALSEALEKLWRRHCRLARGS

[3] = target: T3, E. coli RNase P holoenzyme, P RNA C70U (Escherichia coli, UniProt P0A7Y8 1-119); experiment: as above; settings: protein: recombinant; label: 5' Cy3 on strand 1; 12 bp continuous helix with one U-G wobble; 5' overhang 9 nt, 3' overhang 4 nt (GCCA)
T3 sequence: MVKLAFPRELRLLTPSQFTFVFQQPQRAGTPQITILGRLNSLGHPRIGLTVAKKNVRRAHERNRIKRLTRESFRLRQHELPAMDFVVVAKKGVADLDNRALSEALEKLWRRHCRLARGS

[4] = target: T1, E. coli RNase P holoenzyme (C5 protein …); experiment: single-turnover kinetics by PAGE (K' from kobs vs [E]); 17.5 mM Mg2+, pH 6; K' approximates Kd; 50 mM MES pH 6, 100 mM NaCl, 17.5 mM MgCl2 (or CaCl2), 0.015% Triton X-100 reduced, 37 C (PAGE single turnover); stopped-flow in similar buffer; settings: protein: recombinant; label: 5' Cy3 on strand 1; 12 bp continuous helix with one U-G wobble; 5' overhang 9 nt, 3' overhang 4 nt (GCCA)

| Binder | Kd [1] | Kd [2] | Kd [3] | Kd [4] |
| --- | --- | --- | --- | --- |
| 5'Ap(-2)-MD1 (dsRNA, 2-aminopurine at position 8 (N-2), written A; Table 1 prints a 5' Cy3 (apparently swapped with 5'Cy3-MD1)) RNA 1: ACCCAAAAUGGUCCGGGCGGG RNA 2: CCCGUCCGGACCGCCA | 195 nM |  |  |  |
| 5'Cy3-MD1 (dsRNA, 2-aminopurine at position 8 (N-2) as printed, written A; Table 1 appears to swap the Cy3 between 5'Cy3-MD1 and 5'Ap(-2)-MD1) RNA 1: ACCCAAAAUGGUCCGGGCGGG RNA 2: CCCGUCCGGACCGCCA |  | < 250 nM | < 250 nM | 189 nM |

Source: PMC11221534, “A minimal RNA substrate with dual fluorescent probes enables rapid kinetics and provides insight into bacterial RNase P active site interactions”
